Patent US20240309056A1 (NAVIGO PROTEINS, published 2024)

Columns and labels:
[1] = biological target: T1, ubiquitin mutein 200053; assay: SPR (Biacore 3000), ligand immobilised via C-terminal Cys on CM-5, ubiquitin mutein in solution, Langmuir 1:1
T1 construct: also called Affilin-200053
Protocol: (§1) Purified proteins were immobilized via C-terminal Cysteine on a CM-5 sensor chip (GE Healthcare) using NHS/EDC after PDEA activation with a Biacore 3000 system (GE Healthcare). The chip was equilibrated with SPR running buffer (PBS 0.05% Tween pH 7.3). Soluble ubiquitin muteins (Affilin® proteins) applied to the chip in serial dilutions (different concentrations) with a flow rate of 30 μl/min. The association was performed for 120 seconds and the dissociation for 120 seconds. After each run, the chip surface was regenerated with 30 μl regeneration buffer (10 mM glycine pH 2.0) and equilibrated with running buffer. Affilin® proteins accumulated on the surface increasing the refractive index. This change in the refractive index was measured in real time and plotted as response or resonance units versus time.
(§2) Binding studies were carried out using the BIAcore 3000 (GE Healthcare); data evaluation was operated via the BIAevaluation 3.0 software, provided by the manufacturer, by the use of the Langmuir 1:1 model (RI=0). Evaluated dissociation constants (KD) were standardized against the immobilized protein and indicated. Shown is the change in refractive index measured in real time and plotted as response or resonance unit [RU] versus time [sec] (see Table 2).

[2] = biological target: T2, ubiquitin mutein 77404; assay: as above
T2 construct: also called Affilin-77404
Protocol: as §1, §2

[3] = biological target: T3, ubiquitin mutein 211883; assay: as above
T3 construct: also called Affilin-211883
Protocol: as §1, §2

[4] = biological target: T4, ubiquitin mutein 139819; assay: as above
T4 construct: Monomer with an insertion of 6 amino acids between positions 9 and 10 of ubiquitin; also called Affilin-139819
Protocol: as §1, §2

[5] = biological target: T2, ubiquitin mutein 77404; assay: SPR (Biacore 3000), ligand immobilised, ubiquitin mutein in solution; Table 1 run; ligand on the chip, Affilin-77404 in solution
Protocol: as §1, §2

[6] = biological target: T1, ubiquitin mutein 200053; assay: SPR (Biacore 3000), ligand multimer immobilised, ubiquitin mutein in solution
Protocol: as §1, §2

[7] = biological target: T2, ubiquitin mutein 77404; assay: as above
Protocol: as §1, §2

[8] = biological target: T3, ubiquitin mutein 211883; assay: as above
Protocol: as §1, §2

[9] = biological target: T2, ubiquitin mutein 77404; assay: SPR; SEQ ID NO: 2, unmutated
Protocol: as §1, §2

[10] = biological target: T2, ubiquitin mutein 77404; assay: SPR; point mutant M2K
Protocol: as §1, §2

[11] = biological target: T2, ubiquitin mutein 77404; assay: SPR; point mutant D3F
Protocol: as §1, §2

[12] = biological target: T2, ubiquitin mutein 77404; assay: SPR; point mutant F5E
Protocol: as §1, §2

[13] = biological target: T2, ubiquitin mutein 77404; assay: SPR; point mutant M23E
Protocol: as §1, §2

[14] = biological target: T2, ubiquitin mutein 77404; assay: SPR; point mutant Y8Q
Protocol: as §1, §2

[15] = biological target: T2, ubiquitin mutein 77404; assay: SPR; point mutant K25R
Protocol: as §1, §2

[16] = biological target: T2, ubiquitin mutein 77404; assay: SPR; point mutant A16H
Protocol: as §1, §2

Binder	Kd [6] [nM]	Kd [7] [nM]	Kd [8] [nM]	also measured
affinity ligand 187029 (designed binder, Artificial mosaic protein of Protein A-like structure) NAAMDDFAQYSAWAEIEALPNLTEMQKDQFIWSLMFDPSVSKEVLGEAQKLNDSQAPK				Kd [1]: 5.9 nM; Kd [2]: 1.3 nM; Kd [3]: 52.9 nM; Kd [4]: 75.5 nM; Kd [5]: < 0.5 nM
affinity ligand 187028 (designed binder) NAARSDEAQYSAWAEIEALPNLTEMQKDQFIWSLMFDPSVSKEVLGEAQKLNDSQAPK				Kd [1]: 2.5 nM; Kd [2]: 0.6 nM; Kd [3]: 66.2 nM; Kd [4]: 47.3 nM
SEQ21 dimer (215996) (designed binder) NAARSDEAQYSAWAEIEALPNLTEMQKDQFIWSLMFDPSVSKEVLGEAQKLNDSQAPKQAPKVDAKFDQAPKVDAKFDNAARSDEAQYSAWAEIEALPNLTEMQKDQFIWSLMFDPSVSKEVLGEAQKLNDSQAPKC	5.5	0.16	78.1	
SEQ1 dimer (215999) (designed binder) NAAMDDFAQYSAWAEIEALPNLTEMQKDQFIWSLMFDPSVSKEVLGEAQKLNDSQAPKQAPKVDAKFDQAPKVDAKFDNAAMDDFAQYSAWAEIEALPNLTEMQKDQFIWSLMFDPSVSKEVLGEAQKLNDSQAPKC		0.1	55.6	
SEQ ID NO: 2 (designed binder, also called 187029 del2N) AMDDFAQYSAWAEIEALPNLTEMQKDQFIWSLMFDPSVSKEVLGEAQKLNDSQAPK				Kd [9]: < 0.5 nM
SEQ ID NO: 2_M2K (designed binder) AKDDFAQYSAWAEIEALPNLTEMQKDQFIWSLMFDPSVSKEVLGEAQKLNDSQAPK				Kd [10]: < 0.5 nM
SEQ ID NO: 2_D3F (designed binder) AMFDFAQYSAWAEIEALPNLTEMQKDQFIWSLMFDPSVSKEVLGEAQKLNDSQAPK				Kd [11]: < 0.5 nM
SEQ ID NO: 2_F5E (designed binder) AMDDEAQYSAWAEIEALPNLTEMQKDQFIWSLMFDPSVSKEVLGEAQKLNDSQAPK				Kd [12]: < 0.5 nM
SEQ ID NO: 2_M23E (designed binder) AMDDFAQYSAWAEIEALPNLTEEQKDQFIWSLMFDPSVSKEVLGEAQKLNDSQAPK				Kd [13]: < 0.5 nM
SEQ ID NO: 2_Y8Q (designed binder) AMDDFAQQSAWAEIEALPNLTEMQKDQFIWSLMFDPSVSKEVLGEAQKLNDSQAPK				Kd [14]: < 0.5 nM
SEQ ID NO: 2_K25R (designed binder) AMDDFAQYSAWAEIEALPNLTEMQRDQFIWSLMFDPSVSKEVLGEAQKLNDSQAPK				Kd [15]: < 0.5 nM
SEQ ID NO: 2_A16H (designed binder) AMDDFAQYSAWAEIEHLPNLTEMQKDQFIWSLMFDPSVSKEVLGEAQKLNDSQAPK				Kd [16]: < 0.5 nM
SEQ21 trimer (215997) (designed binder) NAARSDEAQYSAWAEIEALPNLTEMQKDQFIWSLMFDPSVSKEVLGEAQKLNDSQAPKQAPKVDAKFDQAPKVDAKFDNAARSDEAQYSAWAEIEALPNLTEMQKDQFIWSLMFDPSVSKEVLGEAQKLNDSQAPKQAPKVDAKFDQAPKVDAKFDNAARSDEAQYSAWAEIEALPNLTEMQKDQFIWSLMFDPSVSKEVLGEAQKLNDSQAPKC	8.5	0.4	73.4	
SEQ1 trimer (216000) (designed binder) NAAMDDFAQYSAWAEIEALPNLTEMQKDQFIWSLMFDPSVSKEVLGEAQKLNDSQAPKQAPKVDAKFDQAPKVDAKFDNAAMDDFAQYSAWAEIEALPNLTEMQKDQFIWSLMFDPSVSKEVLGEAQKLNDSQAPKQAPKVDAKFDQAPKVDAKFDNAAMDDFAQYSAWAEIEALPNLTEMQKDQFIWSLMFDPSVSKEVLGEAQKLNDSQAPKC	6.5	0.3	56.2	
SEQ 21 tetramer (215998) (designed binder) NAARSDEAQYSAWAEIEALPNLTEMQKDQFIWSLMFDPSVSKEVLGEAQKLNDSQAPKQAPKVDAKFDQAPKVDAKFDNAARSDEAQYSAWAEIEALPNLTEMQKDQFIWSLMFDPSVSKEVLGEAQKLNDSQAPKQAPKVDAKFDQAPKVDAKFDNAARSDEAQYSAWAEIEALPNLTEMQKDQFIWSLMFDPSVSKEVLGEAQKLNDSQAPKQAPKVDAKFDQAPKVDAKFDNAARSDEAQYSAWAEIEALPNLTEMQKDQFIWSLMFDPSVSKEVLGEAQKLNDSQAPKC	8.3	0.05	95.7	
SEQ1 tetramer (216001) (designed binder) NAAMDDFAQYSAWAEIEALPNLTEMQKDQFIWSLMFDPSVSKEVLGEAQKLNDSQAPKQAPKVDAKFDQAPKVDAKFDNAAMDDFAQYSAWAEIEALPNLTEMQKDQFIWSLMFDPSVSKEVLGEAQKLNDSQAPKQAPKVDAKFDQAPKVDAKFDNAAMDDFAQYSAWAEIEALPNLTEMQKDQFIWSLMFDPSVSKEVLGEAQKLNDSQAPKQAPKVDAKFDQAPKVDAKFDNAAMDDFAQYSAWAEIEALPNLTEMQKDQFIWSLMFDPSVSKEVLGEAQKLNDSQAPKC	6.5	0.6	93.1	
